Laboratory results published in patent US20140186294A1, “PHAGOCYTIC ACTIVITY AS A MARKER OF SYNUCLEINOPATHIC DISEASE” (ELAN PHARMACEUTICALS, INC., priority 2010, published 2014).
“Also recorded” adds a separate entry of the source.

Legend:
[1] = system: synuclein overexpressing microglia; assay: Bead phagocytosis (phagocytic index) of IL-4 treated microglia from synuclein genomic lines 3, 26, 422; type: cell-based, mouse; details: IL-4 24 hours, then beads 90 minutes
Experimental: FIG. 13: Wild type or synuclein overexpressing microglia isolated from line 3, 26, or 422 littermate pups cells were treated for 24 hours with IL-4 and the fed beads for 90 minutes and phagocytic index determined.
To investigate the role of endogenous synuclein on microglia function, we utilized a transgenic mouse model in which wild type or the E46K mutated form of human synuclein was overexpressed from a human bacterial artificial chromosome (bac). The bac construct contained the synuclein promoter and upstream sequences (45 kbp), as well as downstream 3′ sequences ([…]). Three animal lines of interest were identified; line 422 expresses wild type synuclein and two additional lines, line 26 and line 3, express the mutant E46K form. Altered microglia function associated with over expression of human synuclein was assessed in cells isolated from line 26 P1-P3 pups due in part to the high synuclein expression observed in this line. […] Significant overexpression of human synuclein in the murine microglia allowed us to assess the consequence of elevated synuclein levels on microglia function. […] Although the requirement for receptor engagement differs, both targets require activation of intracellular signaling, actin rearrangement, and mobilization of membrane to the phagocytic cup. […]

synuclein mRNA [2] = assay: Synuclein transcript levels in IL-4 treated human microglia (microarray, qPCR); type: cell-based; details: IL-4 24 hours; microglia from three human donors
Experimental: (§1) FIG. 12: Microarray analysis of microglia isolated from three human donors were stimulated with IL-4 for 24 hours and microarray experiment performed and results were confirmed by qPCR. qPCR was also performed on microglia isolated from IL-4 treated line 26/synuclein null pups.
(§2) Human microglia were treated with IL-4 and synuclein transcript levels were measured by microarray and qPCR. Following IL-4 treatment synuclein levels were decreased by 50% in the three donors tested (FIG. 12). […] Microglia from synuclein genomic mice were treated with IL-4 for 24 hours, and while synuclein mRNA levels were decreased, protein levels were unaffected. Synuclein is turned over slowly, therefore 24 hours maybe too soon to see affects. To assess this microglia were stimulated with IL-4 for 48 hr at which time a 50% reduction in synuclein protein levels was observed. […] This may point to a direct effect of IL-4 signaling on the synuclein promoter.

synuclein mRNA [3] = assay: Synuclein mRNA (qPCR) in IL-4 treated line 26/synuclein null microglia; type: cell-based, mouse
Experimental: as §1, §2

synuclein protein = assay: Synuclein protein levels in IL-4 treated microglia from synuclein genomic mice; type: cell-based, mouse
Experimental: as §2

SNARE complex = SNARE complex components in lysates of IL-4 treated microglia; type: cell-based, mouse; details: IL-4 24 hr; wild type and synuclein OE cells
Experimental: To determine if IL-4 worked in part by altering SNARE or vesicle movement microglia from synuclein genomic mice were treated with IL-4 for 24 hr and lysates were probed for components of the SNARE complex. […] After addition of beads we saw induction of SNARE complexes and these were enhanced following IL-4 treatment.

microglial cells = assay: Phagocytic activity screening assay, microglial cells; type: cell-based
Experimental: (§3) The components of a screening assay include cells with phagocytic activity, a test agent being screened and an entity that can be phagocytosed. Such an entity can be inert particles, such as latex beads, preferably of size 4-10 microns. The entity can also be apoptotic cells, such as Jurkat cells). Cells and inert entities are phagocytosed by different mechanisms, the former being receptor dependent. Usually the cells are contacted with the test agent first and incubated for a period (e.g., 1-48 hr) before adding the entity to be phagocytosis. Phagocytosis can be followed by light microscopy or flow cytometry among other methods detecting uptake of the entity being phagocytosed into the phagocytic cell. Methods for detection of phagocytosis can include any fluorescent based platform (e.g., flow cytometry, microscopy, array scan, or a Tr-fret, fluorescent plate reader) enzymatic, or colorimetric readout.
(§4) The screening assay can be performed on different types of phagocytic cells in parallel or sequentially. Some agents stimulate phagocytic activity in all or multiple cell types. Other agents may stimulate phagocytic activity in some cells type but not all.

peripheral macrophages = assay: Phagocytic activity screening assay, peripheral macrophages; type: cell-based
Experimental: as §3, §4

H4 neuronal cells = assay: Phagocytic activity screening assay, H4 neuronal cells; type: cell-based, human; details: H4 neuronal cells (lack an IL-4 receptor)
Excerpt: The screening and diagnostic assays employ cells with phagocytic activity, sometimes referred to as phagocytic cells. The cells can be human, or other mammalian, particular rodent or mouse. The cells can be obtained from a subject with synucleinopathic disease (usually a human) or a transgenic animal model of disease (e.g., a mouse). The cells can also be a cell line transformed to express an alpha synuclein gene. The cells include microglial cells or peripheral macrophages or polymorphonuclear cells or other phagocytic cells. Microglia can be obtained by biopsy or differentiating or trans-differentiation of embryonic stems cells, bone marrow, induced pluripotent or other stem or pluripotent cell sources from a subject or transgenic animal model. Such phagocytic cells have higher intracellular levels of alpha synuclein that control cells from an undiseased individual. […]
The components of a screening assay include cells with phagocytic activity, a test agent being screened and an entity that can be phagocytosed. […] Methods for detection of phagocytosis can include any fluorescent based platform (e.g., flow cytometry, microscopy, array scan, or a Tr-fret, fluorescent plate reader) enzymatic, or colorimetric readout. […]

B1: IL-4: interleukin IL-4 (Swiss Prot P05112), cytokine used to treat microglia (protein, UniProt P05112 25-153, looked up)
Interleukin-4: HKCDITLQEIIKTLNSLTEQKTLCTELTVTDIFAASKNTTEKETFCRAATVLRQFYSHHEKDTRCLGATAQQFHRHKQLIRFLKRLDRNLWGLAGLNSCPVKEANQSTLENFLERLKTIMREKYSKCSS
phagocytosis (phagocytic index) [1]: rescue the phagocytic defect
phagocytosis (phagocytic index) ([1]; listed as 11-4): restored phagocytosis
reduction in synuclein mRNA levels (synuclein mRNA [2]): 50%
reduction in synuclein mRNA levels (synuclein mRNA [3]; IL-4 treated line 26/synuclein null pup microglia, qPCR): 50%
synuclein mRNA levels (synuclein mRNA [3]; line 26/synuclein null genomic microglia, IL-4): reduced synuclein mRNA levels
synuclein protein levels (synuclein protein; IL-4 for 24 hours): unaffected; also recorded: did not decrease synuclein protein
reduction in synuclein protein levels (synuclein protein; IL-4 for 48 hr): 50%
SNARE complex components in lysates (SNARE complex): increased monomer SNAP23 Syntaxin4, and SNAP23 snare complex
stimulating phagocytic activity (microglial cells): effective
stimulating phagocytic activity (peripheral macrophages): effective
stimulating phagocytic activity (H4 neuronal cells): not in H4 neuronal cells
